In patent publication US20050037448A1:

How the values were obtained:
[1] = target: des-31,32-proinsulin (UniProt P01308); experiment: sandwich immunoenzymatic C-peptide assay: PEP001 beads, goat polyclonal conjugate; no AC1D4 or BC9B6
[2] = target: des-64,65-proinsulin (UniProt P01308); experiment: as above
[3] = target: human proinsulin (human) (UniProt P01308); experiment: as above
[4] = target: human proinsulin (human) (UniProt P01308); experiment: competitive RIA, PEP001-coated tubes, 125I-Tyr-C-peptide; serum E1 overloaded with 0.16 pmol/ml proinsulin; no AC1D4
[5] = target: human proinsulin (human) (UniProt P01308); experiment: competitive RIA, PEP001-coated tubes, 125I-Tyr-C-peptide; serum E1 overloaded with 0.67 pmol/ml proinsulin; no AC1D4
[6] = target: human proinsulin (human) (UniProt P01308); experiment: competitive RIA, PEP001-coated tubes, 125I-Tyr-C-peptide; serum E1 overloaded with 3.33 pmol/ml proinsulin; no AC1D4
[7] = target: des-31,32-proinsulin (UniProt P01308); experiment: sandwich immunoenzymatic C-peptide assay: PEP001 beads, goat polyclonal anti-C-peptide-alkaline phosphatase; no AC1D4
[8] = target: des-64,65-proinsulin (UniProt P01308); experiment: as above
[9] = target: human proinsulin (human) (UniProt P01308); experiment: as above
[10] = target: des-31,32-proinsulin (UniProt P01308); experiment: competitive RIA, PEP001-coated tubes, 125I-Tyr-C-peptide; serum E1 overloaded with 0.16 pmol/ml des-31,32-proinsulin; no AC1D4
[11] = target: des-31,32-proinsulin (UniProt P01308); experiment: competitive RIA, PEP001-coated tubes, 125I-Tyr-C-peptide; serum E1 overloaded with 0.67 pmol/ml des-31,32-proinsulin; no AC1D4
[12] = target: des-31,32-proinsulin (UniProt P01308); experiment: competitive RIA, PEP001-coated tubes, 125I-Tyr-C-peptide; serum E2 overloaded with 3.33 pmol/ml des-31,32-proinsulin; no AC1D4
[13] = target: des-64,65-proinsulin (UniProt P01308); experiment: competitive RIA, PEP001-coated tubes, 125I-Tyr-C-peptide; serum E1 overloaded with 0.16 pmol/ml des-64,65-proinsulin; no AC1D4
[14] = target: des-64,65-proinsulin (UniProt P01308); experiment: competitive RIA, PEP001-coated tubes, 125I-Tyr-C-peptide; serum E2 overloaded with 0.16 pmol/ml des-64,65-proinsulin; no AC1D4
[15] = target: des-64,65-proinsulin (UniProt P01308); experiment: competitive RIA, PEP001-coated tubes, 125I-Tyr-C-peptide; serum E2 overloaded with 3.33 pmol/ml des-64,65-proinsulin; no AC1D4
[16] = target: human proinsulin (human) (UniProt P01308); experiment: competitive RIA, PEP001-coated tubes, 125I-Tyr-C-peptide; serum E1 overloaded with 3.33 pmol/ml proinsulin; competitor AC1D4 20 µg/ml
[17] = target: human proinsulin (human) (UniProt P01308); experiment: competitive RIA, PEP001-coated tubes, 125I-Tyr-C-peptide; serum E2 overloaded with 0.16 pmol/ml proinsulin; competitor AC1D4 20 µg/ml
[18] = target: des-31,32-proinsulin (UniProt P01308); experiment: sandwich immunoenzymatic C-peptide assay: PEP001 beads, goat polyclonal anti-C-peptide-alkaline phosphatase; competitor AC1D4 20 µg/ml
[19] = target: des-64,65-proinsulin (UniProt P01308); experiment: as above
[20] = target: human proinsulin (human) (UniProt P01308); experiment: as above
[21] = target: des-31,32-proinsulin (UniProt P01308); experiment: sandwich immunoenzymatic C-peptide assay: PEP001 beads, goat polyclonal anti-C-peptide-alkaline phosphatase; competitor BC9B6 20 µg/ml
[22] = target: des-64,65-proinsulin (UniProt P01308); experiment: as above
[23] = target: human proinsulin (human) (UniProt P01308); experiment: as above
[24] = target: des-31,32-proinsulin (UniProt P01308); experiment: competitive RIA, PEP001-coated tubes, 125I-Tyr-C-peptide; serum E1 overloaded with 0.16 pmol/ml des-31,32-proinsulin; competitor AC1D4 20 µg/ml
[25] = target: des-64,65-proinsulin (UniProt P01308); experiment: competitive RIA, PEP001-coated tubes, 125I-Tyr-C-peptide; serum E1 overloaded with 0.67 pmol/ml des-64,65-proinsulin; competitor AC1D4 20 µg/ml
[26] = target: des-64,65-proinsulin (UniProt P01308); experiment: competitive RIA, PEP001-coated tubes, 125I-Tyr-C-peptide; serum E2 overloaded with 0.67 pmol/ml des-64,65-proinsulin; competitor AC1D4 20 µg/ml
[27] = target: des-31,32-proinsulin (UniProt P01308); experiment: sandwich immunoenzymatic C-peptide assay: PEP001 beads, goat polyclonal conjugate; competitors AC1D4 + BC9B6 in equal quantities, 10 µg/ml
[28] = target: des-64,65-proinsulin (UniProt P01308); experiment: as above
[29] = target: human proinsulin (human) (UniProt P01308); experiment: as above

percentage of cross reaction [1]: 108%
percentage of cross reaction [2]: 94%
percentage of cross reaction [3]: 92%
Increase after overload (%) [4]: 15%
Increase after overload (%) [5]: 56%
Increase after overload (%) [6]: 288%
percentage of cross reaction [7]: 108%
percentage of cross reaction [8]: 94%
percentage of cross reaction [9]: 92%
Increase after overload (%) [10]: 8%
Increase after overload (%) [11]: 38%
Increase after overload (%) [12]: 59%
Increase after overload (%) [13]: 6%
Increase after overload (%) [14]: 0%
Increase after overload (%) [15]: 55%
Increase after overload (%) [16]: 31%
Increase after overload (%) [17]: 0%
percentage of cross reaction [18]: 16%
percentage of cross reaction [19]: 85%
percentage of cross reaction [20]: 8%
percentage of cross reaction [21]: 115%
percentage of cross reaction [22]: 8%
percentage of cross reaction [23]: 8%
Increase after overload (%) [24]: 5%
Increase after overload (%) [25]: 63%
Increase after overload (%) [26]: 18%
percentage of cross reaction [27]: 30%
percentage of cross reaction [28]: 18%
percentage of cross reaction [29]: 4%
Substance: PEP001 anti-C-peptide monoclonal antibody
